Results from patent US20140087995A1 (published 2014).
Numbered stars: 1 amine (or outer) side, 2 acyl side, 3 side chain; on linkers, the order of the positions; unused ones are H or OH. Bridge positions count the residues as written; N and C are the ends. Side chains are listed from the residue outwards. Ends that are not written are not given here. * marks the point of attachment. C20 diacid = O=C(O)CCCCCCCCCCCCCCCCCCC(=O)*; γGlu = O=C(O)[C@H](CCC(=O)[*:2])N[*:1]

Target: T1, human calcitonin receptor (human, UniProt P30988 25-474)
T1 construct: whole, on cells; also called hCTR; hCT
T1 sequence (looked up): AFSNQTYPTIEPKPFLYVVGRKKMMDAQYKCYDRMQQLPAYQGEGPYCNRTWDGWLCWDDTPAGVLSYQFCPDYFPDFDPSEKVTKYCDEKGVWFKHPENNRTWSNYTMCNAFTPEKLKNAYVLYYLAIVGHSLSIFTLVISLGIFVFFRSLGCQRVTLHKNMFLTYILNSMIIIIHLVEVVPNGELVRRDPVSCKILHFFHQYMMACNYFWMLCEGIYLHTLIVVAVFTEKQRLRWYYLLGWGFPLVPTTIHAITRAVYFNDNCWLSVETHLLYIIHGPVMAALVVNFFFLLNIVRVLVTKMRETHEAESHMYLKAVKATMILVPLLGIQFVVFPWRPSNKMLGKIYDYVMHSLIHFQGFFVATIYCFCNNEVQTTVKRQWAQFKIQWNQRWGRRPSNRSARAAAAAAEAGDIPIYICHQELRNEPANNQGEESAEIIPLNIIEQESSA
Assay: SPA competition with 125I-calcitonin, membranes of BHK hCTR cells (Assay VII)
Method in brief: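 BHK hCTR membranes 35 ng/μL + SPA beads 0.05 mg/well; buffer 50 mM Hepes pH 7.4, 1 mM CaCl2, 5 mM MgCl₂, 0.1% OA, 0.02% Tween20. 120 min, 25° C., shaking. Scintillation count; IC50 by one-site binding competition.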

B1: N^ε1-[(4S)-4-carboxy-4-(19-carboxynonadecanoylamino)butanoyl]-[Arg17,Pro21,Pro27,His35]-h-amylin (peptide)
peptide: K([γGlu-C20 diacid])CNTATCATQRLANFLRHSSPNFGAIPSSTNVGSHTY-NH2
modifications: disulfide 2-7; N-terminus assumed
SMILES: CC[C@H](C)[C@H](NC(=O)[C@H](C)NC(=O)CNC(=O)[C@H](Cc1ccccc1)NC(=O)[C@H](CC(N)=O)NC(=O)[C@@H]1CCCN1C(=O)[C@H](CO)NC(=O)[C@H](CO)NC(=O)[C@H](Cc1c[nH]cn1)NC(=O)[C@H](CCCNC(=N)N)NC(=O)[C@H](CC(C)C)NC(=O)[C@H](Cc1ccccc1)NC(=O)[C@H](CC(N)=O)NC(=O)[C@H](C)NC(=O)[C@H](CC(C)C)NC(=O)[C@H](CCCNC(=N)N)NC(=O)[C@H](CCC(N)=O)NC(=O)[C@@H](NC(=O)[C@H](C)NC(=O)[C@@H]1CSSC[C@H](NC(=O)[C@@H](N)CCCCNC(=O)CC[C@H](NC(=O)CCCCCCCCCCCCCCCCCCC(=O)O)C(=O)O)C(=O)N[C@@H](CC(N)=O)C(=O)N[C@@H]([C@@H](C)O)C(=O)N[C@@H](C)C(=O)N[C@@H]([C@@H](C)O)C(=O)N1)[C@@H](C)O)C(=O)N1CCC[C@H]1C(=O)N[C@@H](CO)C(=O)N[C@@H](CO)C(=O)N[C@H](C(=O)N[C@@H](CC(N)=O)C(=O)N[C@H](C(=O)NCC(=O)N[C@@H](CO)C(=O)N[C@@H](Cc1c[nH]cn1)C(=O)N[C@H](C(=O)N[C@@H](Cc1ccc(O)cc1)C(N)=O)[C@@H](C)O)C(C)C)[C@@H](C)O
notes: also called compound 60
Work on B1 yielded an IC50 of 31.4 nM.

B2: N^ε1-[(4S)-4-carboxy-4-(19-carboxynonadecanoylamino)butanoyl]-[Arg17,Pro21,Pro27,Lys35]-h-amylin (peptide)
peptide: K([γGlu-C20 diacid])CNTATCATQRLANFLRHSSPNFGAIPSSTNVGSKTY-NH2
modifications: disulfide 2-7; N-terminus assumed
SMILES: CC[C@H](C)[C@H](NC(=O)[C@H](C)NC(=O)CNC(=O)[C@H](Cc1ccccc1)NC(=O)[C@H](CC(N)=O)NC(=O)[C@@H]1CCCN1C(=O)[C@H](CO)NC(=O)[C@H](CO)NC(=O)[C@H](Cc1c[nH]cn1)NC(=O)[C@H](CCCNC(=N)N)NC(=O)[C@H](CC(C)C)NC(=O)[C@H](Cc1ccccc1)NC(=O)[C@H](CC(N)=O)NC(=O)[C@H](C)NC(=O)[C@H](CC(C)C)NC(=O)[C@H](CCCNC(=N)N)NC(=O)[C@H](CCC(N)=O)NC(=O)[C@@H](NC(=O)[C@H](C)NC(=O)[C@@H]1CSSC[C@H](NC(=O)[C@@H](N)CCCCNC(=O)CC[C@H](NC(=O)CCCCCCCCCCCCCCCCCCC(=O)O)C(=O)O)C(=O)N[C@@H](CC(N)=O)C(=O)N[C@@H]([C@@H](C)O)C(=O)N[C@@H](C)C(=O)N[C@@H]([C@@H](C)O)C(=O)N1)[C@@H](C)O)C(=O)N1CCC[C@H]1C(=O)N[C@@H](CO)C(=O)N[C@@H](CO)C(=O)N[C@H](C(=O)N[C@@H](CC(N)=O)C(=O)N[C@H](C(=O)NCC(=O)N[C@@H](CO)C(=O)N[C@@H](CCCCN)C(=O)N[C@H](C(=O)N[C@@H](Cc1ccc(O)cc1)C(N)=O)[C@@H](C)O)C(C)C)[C@@H](C)O
notes: also called compound 35
In the case of B2, the IC50 is reported as 48.8 nM.
